From patent publication US20210063414A1, “METHODS FOR PREVENTING AND/OR TREATING BONE LOSS CONDITIONS BY MODULATING IRISIN” (Dana-Farber Cancer Institute, Inc., priority 2018, published 2021) come the findings set out here.

One assay concerns sclerostin. Put plainly: Irisin injection in mice: sclerostin mRNA in osteocyte-enriched bones and plasma sclerostin protein (ELISA). The format is in vivo. The settings on record: irisin IP daily for 6 days. As to the method: 8 weeks old mice were injected daily with indicated dose of irisin for 6 days. […] were collected and treated with collagenase to yield osteocyte-enriched bones. Sclerostin mRNA level from osteocyte-enriched tibia was analyzed by qPCR (FIG. 7A). Cyclophilin was used as a house-keeping gene. Plasma was collected to analyze the circulating sclerostin protein level by ELISA assay (FIG. 7B). Data are represented as mean±SEM. For FIG. 7A and FIG. 7B, n=5 animals/group. * indicates p<0.05, and *** indicates p<0.001.
Certain materials and methods were used to generate the results described herein. For example, the data shown in FIG. 1A resulted from MLO-Y4 (an osteocyte-like cell line) cells treated with the indicated concentration of irisin and hydrogen peroxide for 4 hours. Cells were stained with Hoechst 33342 (ThermoFisher Scientific, catalog number H3570) and Eth-D1 (ThermoFisher Scientific, catalog number E1169) and analyzed to determine the percentage of cell death using ImageJ. […] Co-precipitated irisin was analyzed by immunoblot analysis against flag tag (Sigma Aldrich, catalog number A8592). The data shown in FIGS. 5A and 5B were generated from MLO-Y4 cells treated and analyzed as in the experiments used to generate the data shown in FIG. 2D, except that pre-treatment of 100 nM RGDS (FIG. 5A) or echistatin (R & D Systems Inc., catalog number 3202/100U) (FIG. 5B) for 10 minutes was performed before irisin treatment. […] RNAs were extracted from the cells and the sclerostin mRNA level was analyzed by qPCR (FIG. 6A) or treated and analyzed as in (FIG. 6A), except that pre-treatment of 10 μM RGDS, RGDyK (Selleck, catalog number S7844), or echistatin was performed for 10 minutes before irisin treatment. […] Sclerostin mRNA level was analyzed by qPCR (FIG. 7A). […] Epididymal fats were collected, RNAs were extracted from the tissues, and mRNA levels of the indicated genes were analyzed by qPCR. […]
In general terms: An ELISA detects its analyte on a solid surface through an enzyme-linked reagent.

The test system of assay [1] is primary inguinal fat cells. In words: Ucp1 mRNA in primary inguinal fat cells. The format is cell-based, mice. The conditions noted are these: irisin during 6 days differentiation. As to the method:
FIG. 18A-FIG. 18B show mRNA and protein levels of indicated genes. 1 mg/kg irisin was injected to 8-week old mice every other day for 6 days. mRNA levels of indicated genes in inguinal fat were analyzed by qRT-PCR. Cyclophilin was used for housekeeping gene (FIG. 18A). Inguinal fats were also lysed to detect the indicated protein level using immunoblot analysis (FIG. 18B). FIGS. 18C and 18D show mRNA and protein levels of indicated genes. Mice were treated and analyzed as (A-B) with addition of coinjection of […] control RGD peptide or cyclo RGDyK (cRGDyK). mRNA levels of indicated genes in inguinal fat were analyzed by qRT-PCR. Cyclophilin was used for house-keeping gene (FIG. 18C). Inguinal fats were also lysed to detect the indicated protein level using immunoblot analysis (FIG. 18D). […] Ucp1 mRNA level was analyzed by qRT-PCR. […]
Inguinal fat tissue from 6 weeks old mice was dissected and washed with PBS, minced and digested for 1 hour at 37° C. in PBS containing 10 mM CaCl2, 2.4 U/ml dispase II (Roche) and 10 mg/ml collagenase D (Roche). […] After that, cells were maintained in 1 μM rosiglitazone in the presence of 0, 0.5, 5 or 50 ng/ml recombinant […] his-tag irisin protein for 4 days with medium change every other day. mRNA levels were analyzed as described in gene expression analysis. […]

B1: irisin: secreted cleaved form of FNDC5; recombinant human/mouse irisin with C-terminal his tag produced in HEK293 cells (protein)
chain: DSPSAPVNVTVRHLKANSAVVSWDVLEDEVVIGFAISQQKKDVRMLRFIQEVNTTTRSCALWDLEEDTEYIVHVQAISIQGQSPASEPVLFKTPREAEKMASKNKDEVTMKE
modifications: left off: small tags and cut ends
notes: secreted cleaved form of FNDC5; recombinant human/mouse irisin with C-terminal his tag produced in HEK293 cells
As to B1, the “sclerostin mRNA in osteocyte-enriched bones” value in the assay with sclerostin is “stimulated sclerostin mRNA”; in the assay on sclerostin (listed as recombinant irisin), “raised the sclerostin mRNA level”. Further, the “circulating (plasma) sclerostin protein” value with sclerostin (ELISA) is given as “significant increase”. Besides, the “gene expression of Ucp1” value in assay [1] is “increased the gene expression of Ucp1”.
